This note sets out measurements from publication PMC8998336 (2022).

For assay [1], the target named is T1, human cationic trypsin (TRY1) p.S200A (human, UniProt P07477 24-247, p.S200A). Put plainly: SPR. On the technique in general: Surface plasmon resonance follows binding to a sensor surface in real time, without labels.
Assay [2] addresses T1, human cationic trypsin (TRY1) p.S200A. Put plainly: SPR. The source holds these as a separate data set.
Assay [3] has as its target human cationic trypsin (TRY1) WT (human, UniProt P07477 24-247). Kind of assay: trypsin activity assay.

B1: serine protease inhibitor Kazal-type 1 (SPINK1) p.N34S (natural protein)
chain: DSLGREAKCYSELNGCTKIYDPVCGTDGNTYPNECVLCFENRKRQTSILIQKSGPC
B1: binding in assay [1] was characterised by a dissociation constant (Kd) of 0.863 nM. In addition, in assay [2], the koff stood at 0.0002 s⁻¹. The same molecule gave a Ki in assay [3] of 0.045 nM.

B2: serine protease inhibitor Kazal-type 1 (SPINK1) WT (natural protein)
chain: DSLGREAKCYNELNGCTKIYDPVCGTDGNTYPNECVLCFENRKRQTSILIQKSGPC
Regarding B2, the Kd in assay [1] turned out to be 0.8 nM. This molecule showed a koff in assay [2] of 0.0002 s⁻¹. The same molecule came in with a Ki in assay [3] of 0.028 nM.

The Kd is a measure of binding affinity in units of concentration. A higher Kd goes with lower affinity. As a reminder, the koff is the first-order rate constant of dissociation. A high value points to a short-lived complex. Broadly, the Ki is a dissociation constant, usually derived from enzyme kinetics or from competition with a known ligand.
